The values that follow come from patent US20100239588A1 (SHANGHAI NATIONAL ENGINEERING RESEARCH CENTER OF ANTIBODY …, published 2010).

In experiment [1] the target is T1, human OPN protein (human, UniProt P10451 17-314, limits assumed).
T1 construct: also called hOPN; human osteopontin
Nature of the experiment: western blot. For orientation: A western blot detects proteins with antibodies after separation by electrophoresis.

The target in a further experiment is T2, KLH-5F12 (also: coupled to KLH (site and chemistry not given here)).
T2 construct: Synthetic 5F12 peptide as a KLH conjugate, spotted in the dot blot; also called short peptide 5F12 coupled to KLH
T2 peptide: DVYWLMPDPPTS
Nature of the experiment: dot blot, 10 ng dots of KLH peptide. The method, then: Dot-blot assay was as follows: three dots of 3×10 ng KLH-4B5 (irrelevant control) and KLH-5F12 respectively, were pointed. Each short peptide obtained in experiment V-4 was used to hybrid with three different antibodies. After being blocked and washed, the membrane was reacted with primary antibody at room temperature for 1 hour. Then, the membrane was washed again, and reacted with HRP-labeled anti-mouse secondary antibody at room temperature for 1 hour. After being washed, the membrane was pressed and exposed.

In a further experiment the target is T3, phage clone 5F12.
T3 construct: not shown: phage coat protein carrying the 12-mer (NEB Ph.D.-12 library)
T3 peptide: DVYWLMPDPPTS
Nature of the experiment: phage clone panned on an antibody-coated plate, eluted titer.

A further experiment deals with T4, phage clone 5D2.
T4 construct: The sentence also calls it a 'synthetic short peptide'; not shown: phage coat protein carrying the 12-mer (NEB Ph.D.-12 library)
T4 peptide: GTSTEVWLAPDP
Described as above.

The target of experiment [2] is T1, human OPN protein. Nature of the experiment: western blot, 5 ug hOPN per lane. The method, then:
SDS-PAGE (10%) electrophoresis was carried out (5 ug hOPN/lane). hOPN was transferred to nitrocellulose membrane by 360 mA constant current for 1 hour.

Residue numbers refer to the chain shown, from its start. Ends that are not written are not given here.

T1 sequence (P10451 17-314 limits assumed): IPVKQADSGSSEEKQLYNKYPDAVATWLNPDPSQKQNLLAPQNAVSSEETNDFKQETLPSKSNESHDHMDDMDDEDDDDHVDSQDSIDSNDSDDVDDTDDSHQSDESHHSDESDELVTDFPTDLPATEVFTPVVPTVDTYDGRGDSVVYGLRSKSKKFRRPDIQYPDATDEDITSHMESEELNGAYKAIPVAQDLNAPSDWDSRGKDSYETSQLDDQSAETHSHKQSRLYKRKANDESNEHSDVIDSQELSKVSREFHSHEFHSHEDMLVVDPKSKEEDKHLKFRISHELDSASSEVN

B1: mouse anti-human OPN monoclonal antibody 23C3 (antibody, V domains shown)
VH: EVQLVESGGGLVQPKGSLKISCAASGFTFNIYAMNWVRQAPGKGLEWVARIRSQSNNYTTYYADSVKDRFTISRDDSQSMLYLQMNNLKTEDTAMYYCVRQMGDYWGQGTTLTVSS
VL: YIQMTQSPASLSVSVGETVTITCRASENIYSFLAWYQQKQGKSPQLLVYAATNLADGVPSRFSGSGSGTQFSLKINSLQSEDFGTYYCQHFWGTPFTFGSGTKLEIKR
notes: also called 23C3 mAb; 23C3 monoclonal antibody
Regarding B1, the binding result with human OPN protein [1], in the experiment with KLH-5F12, with phage clone 5F12 and with phage clone 5D2 was “binds” throughout.

B2: anti-OPN chimeric antibody c23C3 (antibody, human IgG1, kappa, V domains shown)
VH: B1 VH
VL: B1 VL
notes: 23C3 VH and VL joined by overlap PCR to the cloned human CH (pGEM-T/CH) and CL (pGEM-T/CL); also called C23C3 chimeric antibody; chimeric monoclonal antibody c23C3
On to B2, for which the binding result with human OPN protein [2] is on record as “binds”.

B3: anti-OPN humanized antibody h23C3 (h23C3Hb/h23C3Lb) (antibody, human IgG1, kappa, V domains shown)
VH: B1 VH with K15G, K19R, I20L, Q78K, S79N, M80S, N87S, M95V, T111L, L112V
VL: YIQMTQSPSSLSASVGDRVTITCRASENIYSFLAWYQQKPGKAPQLLVYAATNLADGVPSRFSGSGSGTQFTLTISSLQPEDFATYYCQHFWGTPFTFGQGTKLEIKR
notes: Humanized variable regions that retain seven murine framework residues, joined to the human CH and CL by the same method as for h23C3Ha/h23C3La; The signal peptide is left out; also called h23C3VHb/h23C3VLb
As to B3, the binding result with human OPN protein [2] is recorded as “binds”.
